To fix the notation:
B1: GFP-WT-HOOK3, Q86VS8 S238A (protein)
chain: MFSVESLERAELCESLLTWIQTFNVDAPCQTVEDLTNGVVMAQVLQKIDPAYFDENWLNRIKTEVGDNWRLKISNLKKILKGILDYNHEILGQQINDFTLPDVNLIGEHSDAAELGRMLQLILGCAVNCEQKQEYIQAIMMMEESVQHVVMTAIQELMSKESPVSAGNDAYVDLDRQLKKTTEELNEALSAKEEIAQRCHELDMQVAALQEEKSSLLAENQVLMERLNQSDSIEDPNAPAGRRHLQLQTQLEQLQEETFRLEAAKDDYRIRCEELEKEISELRQQNDELTTLADEAQSLKDEIDVLRHSSDKVSKLEGQVESYKKKLEDLGDLRRQVKLLEEKNTMYMQNTVSLEEELRKANAARSQLETYKRQVVELQNRLSEESKKADKLDFEYKRLKEKVDSLQKEKDRLRTERDSLKETIEELRCVQAQEGQLTTQGLMPLGSQESSDSLAAEIVTPEIREKLIRLQHENKMLKLNQEGSDNEKIALLQSLLDDANLRKNELETENRLVNQRLLEVQSQVEELQKSLQDQGSKAEDSVLLKKKLEEHLEKLHEANNELQKKRAIIEDLEPRFNNSSLKIEELQEALRKKEEEMKQMEERYKKYLEKAKSVIRTLDPKQNQGAAPEIQALKNQLQERDRLFHSLEKEYEKTKSQREMEEKYIVSAWYNMGMTLHKKAAEDRLASTGSGQSFLARQRQATSSRRSYPGHVQPATAR
B2: GFP-WT-HOOK3, Q86VS8 S707A (protein)
chain: MFSVESLERAELCESLLTWIQTFNVDAPCQTVEDLTNGVVMAQVLQKIDPAYFDENWLNRIKTEVGDNWRLKISNLKKILKGILDYNHEILGQQINDFTLPDVNLIGEHSDAAELGRMLQLILGCAVNCEQKQEYIQAIMMMEESVQHVVMTAIQELMSKESPVSAGNDAYVDLDRQLKKTTEELNEALSAKEEIAQRCHELDMQVAALQEEKSSLLAENQVLMERLNQSDSIEDPNSPAGRRHLQLQTQLEQLQEETFRLEAAKDDYRIRCEELEKEISELRQQNDELTTLADEAQSLKDEIDVLRHSSDKVSKLEGQVESYKKKLEDLGDLRRQVKLLEEKNTMYMQNTVSLEEELRKANAARSQLETYKRQVVELQNRLSEESKKADKLDFEYKRLKEKVDSLQKEKDRLRTERDSLKETIEELRCVQAQEGQLTTQGLMPLGSQESSDSLAAEIVTPEIREKLIRLQHENKMLKLNQEGSDNEKIALLQSLLDDANLRKNELETENRLVNQRLLEVQSQVEELQKSLQDQGSKAEDSVLLKKKLEEHLEKLHEANNELQKKRAIIEDLEPRFNNSSLKIEELQEALRKKEEEMKQMEERYKKYLEKAKSVIRTLDPKQNQGAAPEIQALKNQLQERDRLFHSLEKEYEKTKSQREMEEKYIVSAWYNMGMTLHKKAAEDRLASTGSGQSFLARQRQATSSRRAYPGHVQPATAR
B3: GFP-WT-HOOK3, Q86VS8 S238A; S707A (protein)
chain: MFSVESLERAELCESLLTWIQTFNVDAPCQTVEDLTNGVVMAQVLQKIDPAYFDENWLNRIKTEVGDNWRLKISNLKKILKGILDYNHEILGQQINDFTLPDVNLIGEHSDAAELGRMLQLILGCAVNCEQKQEYIQAIMMMEESVQHVVMTAIQELMSKESPVSAGNDAYVDLDRQLKKTTEELNEALSAKEEIAQRCHELDMQVAALQEEKSSLLAENQVLMERLNQSDSIEDPNAPAGRRHLQLQTQLEQLQEETFRLEAAKDDYRIRCEELEKEISELRQQNDELTTLADEAQSLKDEIDVLRHSSDKVSKLEGQVESYKKKLEDLGDLRRQVKLLEEKNTMYMQNTVSLEEELRKANAARSQLETYKRQVVELQNRLSEESKKADKLDFEYKRLKEKVDSLQKEKDRLRTERDSLKETIEELRCVQAQEGQLTTQGLMPLGSQESSDSLAAEIVTPEIREKLIRLQHENKMLKLNQEGSDNEKIALLQSLLDDANLRKNELETENRLVNQRLLEVQSQVEELQKSLQDQGSKAEDSVLLKKKLEEHLEKLHEANNELQKKRAIIEDLEPRFNNSSLKIEELQEALRKKEEEMKQMEERYKKYLEKAKSVIRTLDPKQNQGAAPEIQALKNQLQERDRLFHSLEKEYEKTKSQREMEEKYIVSAWYNMGMTLHKKAAEDRLASTGSGQSFLARQRQATSSRRAYPGHVQPATAR
B4: GFP-WT-HOOK3, Q86VS8 S707E (protein)
chain: MFSVESLERAELCESLLTWIQTFNVDAPCQTVEDLTNGVVMAQVLQKIDPAYFDENWLNRIKTEVGDNWRLKISNLKKILKGILDYNHEILGQQINDFTLPDVNLIGEHSDAAELGRMLQLILGCAVNCEQKQEYIQAIMMMEESVQHVVMTAIQELMSKESPVSAGNDAYVDLDRQLKKTTEELNEALSAKEEIAQRCHELDMQVAALQEEKSSLLAENQVLMERLNQSDSIEDPNSPAGRRHLQLQTQLEQLQEETFRLEAAKDDYRIRCEELEKEISELRQQNDELTTLADEAQSLKDEIDVLRHSSDKVSKLEGQVESYKKKLEDLGDLRRQVKLLEEKNTMYMQNTVSLEEELRKANAARSQLETYKRQVVELQNRLSEESKKADKLDFEYKRLKEKVDSLQKEKDRLRTERDSLKETIEELRCVQAQEGQLTTQGLMPLGSQESSDSLAAEIVTPEIREKLIRLQHENKMLKLNQEGSDNEKIALLQSLLDDANLRKNELETENRLVNQRLLEVQSQVEELQKSLQDQGSKAEDSVLLKKKLEEHLEKLHEANNELQKKRAIIEDLEPRFNNSSLKIEELQEALRKKEEEMKQMEERYKKYLEKAKSVIRTLDPKQNQGAAPEIQALKNQLQERDRLFHSLEKEYEKTKSQREMEEKYIVSAWYNMGMTLHKKAAEDRLASTGSGQSFLARQRQATSSRREYPGHVQPATAR
B5: GFP-WT-HOOK3, Q86VS8 S238E (protein)
chain: MFSVESLERAELCESLLTWIQTFNVDAPCQTVEDLTNGVVMAQVLQKIDPAYFDENWLNRIKTEVGDNWRLKISNLKKILKGILDYNHEILGQQINDFTLPDVNLIGEHSDAAELGRMLQLILGCAVNCEQKQEYIQAIMMMEESVQHVVMTAIQELMSKESPVSAGNDAYVDLDRQLKKTTEELNEALSAKEEIAQRCHELDMQVAALQEEKSSLLAENQVLMERLNQSDSIEDPNEPAGRRHLQLQTQLEQLQEETFRLEAAKDDYRIRCEELEKEISELRQQNDELTTLADEAQSLKDEIDVLRHSSDKVSKLEGQVESYKKKLEDLGDLRRQVKLLEEKNTMYMQNTVSLEEELRKANAARSQLETYKRQVVELQNRLSEESKKADKLDFEYKRLKEKVDSLQKEKDRLRTERDSLKETIEELRCVQAQEGQLTTQGLMPLGSQESSDSLAAEIVTPEIREKLIRLQHENKMLKLNQEGSDNEKIALLQSLLDDANLRKNELETENRLVNQRLLEVQSQVEELQKSLQDQGSKAEDSVLLKKKLEEHLEKLHEANNELQKKRAIIEDLEPRFNNSSLKIEELQEALRKKEEEMKQMEERYKKYLEKAKSVIRTLDPKQNQGAAPEIQALKNQLQERDRLFHSLEKEYEKTKSQREMEEKYIVSAWYNMGMTLHKKAAEDRLASTGSGQSFLARQRQATSSRRSYPGHVQPATAR
B6: GFP-WT-HOOK3, Q86VS8 S238E; S707E (protein)
chain: MFSVESLERAELCESLLTWIQTFNVDAPCQTVEDLTNGVVMAQVLQKIDPAYFDENWLNRIKTEVGDNWRLKISNLKKILKGILDYNHEILGQQINDFTLPDVNLIGEHSDAAELGRMLQLILGCAVNCEQKQEYIQAIMMMEESVQHVVMTAIQELMSKESPVSAGNDAYVDLDRQLKKTTEELNEALSAKEEIAQRCHELDMQVAALQEEKSSLLAENQVLMERLNQSDSIEDPNEPAGRRHLQLQTQLEQLQEETFRLEAAKDDYRIRCEELEKEISELRQQNDELTTLADEAQSLKDEIDVLRHSSDKVSKLEGQVESYKKKLEDLGDLRRQVKLLEEKNTMYMQNTVSLEEELRKANAARSQLETYKRQVVELQNRLSEESKKADKLDFEYKRLKEKVDSLQKEKDRLRTERDSLKETIEELRCVQAQEGQLTTQGLMPLGSQESSDSLAAEIVTPEIREKLIRLQHENKMLKLNQEGSDNEKIALLQSLLDDANLRKNELETENRLVNQRLLEVQSQVEELQKSLQDQGSKAEDSVLLKKKLEEHLEKLHEANNELQKKRAIIEDLEPRFNNSSLKIEELQEALRKKEEEMKQMEERYKKYLEKAKSVIRTLDPKQNQGAAPEIQALKNQLQERDRLFHSLEKEYEKTKSQREMEEKYIVSAWYNMGMTLHKKAAEDRLASTGSGQSFLARQRQATSSRREYPGHVQPATAR

The target in this assay is T1, tubulin (endogenous), P07437.
T1 chain: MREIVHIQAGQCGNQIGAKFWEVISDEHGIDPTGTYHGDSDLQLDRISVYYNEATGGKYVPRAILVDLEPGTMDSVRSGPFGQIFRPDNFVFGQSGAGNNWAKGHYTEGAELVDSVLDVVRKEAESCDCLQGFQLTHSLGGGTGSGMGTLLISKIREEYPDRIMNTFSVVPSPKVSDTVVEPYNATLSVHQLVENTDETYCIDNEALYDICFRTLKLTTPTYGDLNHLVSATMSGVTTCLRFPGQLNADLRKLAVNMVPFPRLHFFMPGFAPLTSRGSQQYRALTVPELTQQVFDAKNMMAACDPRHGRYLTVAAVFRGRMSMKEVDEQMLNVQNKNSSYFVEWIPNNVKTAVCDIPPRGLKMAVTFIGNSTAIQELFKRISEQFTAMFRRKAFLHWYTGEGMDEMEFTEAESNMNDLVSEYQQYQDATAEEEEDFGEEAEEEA
Briefly: coIP (co-immunoprecipitation, blot band intensity quantified). To be noted: chain shown with the change; HeLa cells, 100 ng/mL nocodazole for 16 hr (+); parent: est. 7.8; read off a plot.
For the molecule B1, the response turned out to be 8.8 A.U.

For the molecule B2, the response stood at 8.5 A.U.

With B3, the response is 19 A.U. The value for B4 was 12 A.U. The value for B5 was 20 A.U; that for B6 was 9 A.U.
